The text below walks through data of patent US20210115100A1.

Common to all, as to assay: cell-based or functional assay
Test [1] has as its target human mature BMP7 protein variant F9 (SEQ ID NO: 8) (human) (UniProt P18075).
Test [2] has as its target wild type human mature BMP7 (SEQ ID NO: 2) (human) (UniProt P18075).
Test [3] has as its target wild type human pro-BMP7 (human) (UniProt P18075).
Test [4] deals with human pro-BMP7 protein variant F9 (human) (UniProt P18075).
human pro-BMP7 protein variant F9 (human), sequence (P18075 other isoform, or with tags, fused parts or gaps mutant, chain 1 of 2): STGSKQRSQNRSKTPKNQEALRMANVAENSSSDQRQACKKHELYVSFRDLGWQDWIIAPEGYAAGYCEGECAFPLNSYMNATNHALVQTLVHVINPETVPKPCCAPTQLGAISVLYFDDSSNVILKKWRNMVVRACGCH
human pro-BMP7 protein variant F9 (human), sequence (P18075 other isoform, or with tags, fused parts or gaps mutant, chain 2 of 2): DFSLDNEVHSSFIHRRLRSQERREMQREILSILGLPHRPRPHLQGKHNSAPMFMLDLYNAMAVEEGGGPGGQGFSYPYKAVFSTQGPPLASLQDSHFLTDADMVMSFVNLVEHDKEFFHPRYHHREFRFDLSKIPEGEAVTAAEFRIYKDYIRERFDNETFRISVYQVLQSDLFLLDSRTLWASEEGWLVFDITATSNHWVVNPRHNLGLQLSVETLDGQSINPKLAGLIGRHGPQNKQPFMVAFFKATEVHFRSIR

human mature BMP7 protein variant F9 (SEQ ID NO: 8) (human), sequence (P18075 other isoform, or with tags, fused parts or gaps mutant): as the sequence (P18075 other isoform, or with tags, fused parts or gaps mutant, chain 1 of 2) above
Follistatin, sequence (P19883 30-344): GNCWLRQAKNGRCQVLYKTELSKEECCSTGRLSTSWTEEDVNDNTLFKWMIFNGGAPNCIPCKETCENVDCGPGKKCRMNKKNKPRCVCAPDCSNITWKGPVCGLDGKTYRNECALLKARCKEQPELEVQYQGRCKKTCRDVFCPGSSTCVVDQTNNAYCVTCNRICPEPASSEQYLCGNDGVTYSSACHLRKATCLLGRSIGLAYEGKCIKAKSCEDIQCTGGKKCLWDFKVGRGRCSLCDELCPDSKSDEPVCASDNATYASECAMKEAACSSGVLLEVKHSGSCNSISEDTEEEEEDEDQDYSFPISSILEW
wild type human mature BMP7 (SEQ ID NO: 2) (human), sequence (P18075 293-431): as the sequence (P18075 other isoform, or with tags, fused parts or gaps mutant, chain 1 of 2) above, with G65Y, L86I, V93F, G110N, W128Y counted along it
wild type human pro-BMP7 (human), sequence (P18075 293-431, chain 1 of 2): as the sequence (P18075 other isoform, or with tags, fused parts or gaps mutant, chain 1 of 2) above, with G65Y, L86I, V93F, G110N, W128Y counted along it
wild type human pro-BMP7 (human), sequence (P18075 other isoform, or with tags, fused parts or gaps, chain 2 of 2): as the sequence (P18075 other isoform, or with tags, fused parts or gaps mutant, chain 2 of 2) above

Consider Chordin, for which, in test [1], the % inhibition, 0.01X molar excess of inhibitor (hepcidin promoter luciferase, Hep3B2 HepPro luc cells) came out at 3.7%; the % inhibition, 0.1X molar excess of inhibitor (hepcidin promoter luciferase, Hep3B2 HepPro luc cells) stood at 6.8%; the % inhibition, 1X molar excess of inhibitor (hepcidin promoter luciferase, Hep3B2 HepPro luc cells) came to 5.2%; the % inhibition, 10X molar excess of inhibitor (hepcidin promoter luciferase, Hep3B2 HepPro luc cells) turned out to be 5.6%. Moreover, in test [2], the % inhibition, 0.1X molar excess of inhibitor (hepcidin promoter luciferase, Hep3B2 HepPro luc cells) is -13.1%; the % inhibition, 1X molar excess of inhibitor (hepcidin promoter luciferase, Hep3B2 HepPro luc cells) was -9.2%; the % inhibition, 10X molar excess of inhibitor (hepcidin promoter luciferase, Hep3B2 HepPro luc cells) worked out at 21.3%; the % inhibition, 100X molar excess of inhibitor (hepcidin promoter luciferase, Hep3B2 HepPro luc cells) came to 70.9%. For the same substance, in test [3], the % inhibition, 0.1X molar excess of inhibitor (hepcidin promoter luciferase, Hep3B2 HepPro luc cells) is -15.1%; the % inhibition, 1X molar excess of inhibitor (hepcidin promoter luciferase, Hep3B2 HepPro luc cells) was -2.2%; the % inhibition, 10X molar excess of inhibitor (hepcidin promoter luciferase, Hep3B2 HepPro luc cells) was determined as 18.9%; the % inhibition, 100X molar excess of inhibitor (hepcidin promoter luciferase, Hep3B2 HepPro luc cells) turned out to be 76.5%. Moreover, in test [4], the % inhibition, 0.1X molar excess of inhibitor (hepcidin promoter luciferase, Hep3B2 HepPro luc cells) is -5.9%; the % inhibition, 1X molar excess of inhibitor (hepcidin promoter luciferase, Hep3B2 HepPro luc cells) was -5.3%; the % inhibition, 10X molar excess of inhibitor (hepcidin promoter luciferase, Hep3B2 HepPro luc cells) was -1.3%; the % inhibition, 100X molar excess of inhibitor (hepcidin promoter luciferase, Hep3B2 HepPro luc cells) is -17.7%.
For the substance Chordin-like 2, in test [1], the % inhibition, 0.01X molar excess of inhibitor (hepcidin promoter luciferase, Hep3B2 HepPro luc cells) was -1.5%; the % inhibition, 0.1X molar excess of inhibitor (hepcidin promoter luciferase, Hep3B2 HepPro luc cells) is -3.2%; the % inhibition, 1X molar excess of inhibitor (hepcidin promoter luciferase, Hep3B2 HepPro luc cells) was -1%; the % inhibition, 10X molar excess of inhibitor (hepcidin promoter luciferase, Hep3B2 HepPro luc cells) worked out at 9%. For the same substance, in test [2], the % inhibition, 0.1X molar excess of inhibitor (hepcidin promoter luciferase, Hep3B2 HepPro luc cells) was -13.7%; the % inhibition, 1X molar excess of inhibitor (hepcidin promoter luciferase, Hep3B2 HepPro luc cells) stood at 49%; the % inhibition, 10X molar excess of inhibitor (hepcidin promoter luciferase, Hep3B2 HepPro luc cells) came to 69.5%; the % inhibition, 100X molar excess of inhibitor (hepcidin promoter luciferase, Hep3B2 HepPro luc cells) amounted to 71.9%. For the same substance, in test [3], the % inhibition, 0.1X molar excess of inhibitor (hepcidin promoter luciferase, Hep3B2 HepPro luc cells) was determined as 8.9%; the % inhibition, 1X molar excess of inhibitor (hepcidin promoter luciferase, Hep3B2 HepPro luc cells) is 55.9%; the % inhibition, 10X molar excess of inhibitor (hepcidin promoter luciferase, Hep3B2 HepPro luc cells) came to 87.5%; the % inhibition, 100X molar excess of inhibitor (hepcidin promoter luciferase, Hep3B2 HepPro luc cells) turned out to be 88.2%. In test [4], the % inhibition, 0.1X molar excess of inhibitor (hepcidin promoter luciferase, Hep3B2 HepPro luc cells) was 3.5%; the % inhibition, 1X molar excess of inhibitor (hepcidin promoter luciferase, Hep3B2 HepPro luc cells) was determined as 2.4%; the % inhibition, 10X molar excess of inhibitor (hepcidin promoter luciferase, Hep3B2 HepPro luc cells) turned out to be 8.8%; the % inhibition, 100X molar excess of inhibitor (hepcidin promoter luciferase, Hep3B2 HepPro luc cells) came out at 24.9%.
As for Follistatin, in test [1], the % inhibition, 0.01X molar excess of inhibitor (hepcidin promoter luciferase, Hep3B2 HepPro luc cells) is 3.9%; the % inhibition, 0.1X molar excess of inhibitor (hepcidin promoter luciferase, Hep3B2 HepPro luc cells) is 10.6%; the % inhibition, 1X molar excess of inhibitor (hepcidin promoter luciferase, Hep3B2 HepPro luc cells) turned out to be 10%; the % inhibition, 10X molar excess of inhibitor (hepcidin promoter luciferase, Hep3B2 HepPro luc cells) was 23.8%. Further, in test [2], the % inhibition, 0.1X molar excess of inhibitor (hepcidin promoter luciferase, Hep3B2 HepPro luc cells) was -16.6%; the % inhibition, 1X molar excess of inhibitor (hepcidin promoter luciferase, Hep3B2 HepPro luc cells) is -11.9%; the % inhibition, 10X molar excess of inhibitor (hepcidin promoter luciferase, Hep3B2 HepPro luc cells) is 21.1%; the % inhibition, 100X molar excess of inhibitor (hepcidin promoter luciferase, Hep3B2 HepPro luc cells) was determined as 54.7%. Besides, in test [3], the % inhibition, 0.1X molar excess of inhibitor (hepcidin promoter luciferase, Hep3B2 HepPro luc cells) was -10.4%; the % inhibition, 1X molar excess of inhibitor (hepcidin promoter luciferase, Hep3B2 HepPro luc cells) turned out to be 5.9%; the % inhibition, 10X molar excess of inhibitor (hepcidin promoter luciferase, Hep3B2 HepPro luc cells) turned out to be 29.5%; the % inhibition, 100X molar excess of inhibitor (hepcidin promoter luciferase, Hep3B2 HepPro luc cells) amounted to 79.8%. Moreover, in test [4], the % inhibition, 0.1X molar excess of inhibitor (hepcidin promoter luciferase, Hep3B2 HepPro luc cells) is -2.6%; the % inhibition, 1X molar excess of inhibitor (hepcidin promoter luciferase, Hep3B2 HepPro luc cells) is -4.3%; the % inhibition, 10X molar excess of inhibitor (hepcidin promoter luciferase, Hep3B2 HepPro luc cells) was determined as 11.7%; the % inhibition, 100X molar excess of inhibitor (hepcidin promoter luciferase, Hep3B2 HepPro luc cells) was 22.5%.
